# Laboratory results published in patent US20120015890A1 (ARGOS THERAPEUTICS, published 2012).
# Legend:
# [1] = target: the molecule itself; experiment: SDS-PAGE with and without 2-mercaptoethanol; band at about 25 kDa without reducing agent
# Procedure: The HPLC-purified recombinant human CD83ext protein (cloning and expression as described in example 1, purification as described in example 2 was analysed with the Laemmli SDS-PAGE system. To identify possible oligomeric forms of CD83 2-mercaptoethanol (ME) has been omitted from the sample buffer (2% SDS, 5% 2-Mercaptoethanol (ME), 10% Glycerol, 0.2 mM EDTA, 0.005% bromphenolblue, 62.5 mM Tris pH6.8). In the absence of this reducing agent, the intra- and interchain disulfide bonds of CD83 remain intact. The reduced and non-reduced protein samples were both incubated for 5 min at 95° C. and compared with each other by SDS-PAGE (see FIG. 7). During electrophoresis, the mobilities of oligomeric SDS-proteins is lower than those of their fully denatured SDS-polypeptide components. Without ME an upper band appears at the estimated size of a CD83-dimer (about 25 kDa), while the monomeric CD83 band (about 14 kDa) is fainting. Westernblot analysis using the anti-CD83 antibody CD83-1G11 (Lechmann et al., Protein Expression and Purification 24:445-452 (Mar. 2, 2002)) confirmed the specificity of the protein bands. Thus, hCD83ext is a disulfide-linked homodimeric protein.
# [2] = target: the molecule itself; experiment: SDS-PAGE with and without 2-mercaptoethanol
# Excerpt: The purified hCD83ext_mut129_Cys to Ser was compared to purified hCD83ext by SDS-PAGE (see FIG. 9). […] Under non-reducing conditions no CD83-dimer could be detected with the mutant CD83 protein. So the 5th carboxyterminal cysteine of the extracellular CD83 domain is necessary for the creation of homodimers. Westernblot analysis confirmed specificity of the bands (data not shown).
Protein,binding result [1],binding result [2]
"recombinant human CD83ext protein (soluble extracellular domain of human CD83) (receptor, Expressed in E. coli as a GST fusion and cleaved with thrombin; also called hCD83ext; soluble CD83) GSPGTPEVKVACSEDVDLPCTAPWDPQVPYTVSWVKLLEGGEERMETPQEDHLRGQHYHQKGQNGSFDAPNERPYSLKIRNTTSCNSGTYRCTLQDPDGQRNLSGKVILRVTGCPAQRKEETFKKYRAEI",binds,–
"hCD83ext_mut129_Cys to Ser (receptor, Expressed in E. coli as a GST fusion and cleaved with thrombin; Monomeric; also called hCD83ext mut129 Cys to Ser mutant) GSPGTPEVKVACSEDVDLPCTAPWDPQVPYTVSWVKLLEGGEERMETPQEDHLRGQHYHQKGQNGSFDAPNERPYSLKIRNTTSCNSGTYRCTLQDPDGQRNLSGKVILRVTGSPAQRKEETFKKYRAEI",–,no binding
